“Also recorded” adds a separate entry of the source.
Columns and labels:
[1] = target: αvβ3 receptors on PC-3 cells (Homo sapiens, UniProt P05106+P06756); assay: Cell binding assay, displacement of 125I-Echistatin in PC-3 cells
[2] = test system: PC-3 tumor uptake in nude mice; details: mouse, in vivo; cited from earlier work
[3] = later time points; cited from earlier work
GRPr = details: read-out: GRPr binding affinity; nonmetallated probe; cited from earlier work
PC-3 cells [4] = assay: Blocking experiment, cellular uptake of tracer; type: cell-based, human; details: 50 μg blocker added 15 min prior to tracer
[5] = test system: PC-3 tumor-bearing SCID mouse; assay: MicroPET/CT imaging; type: in vivo; details: PC-3 tumor-bearing mouse, 26 MBq via tail vein, 15 h p.i.
[6] = Biodistribution in healthy CF-1 mice; type: in vivo, mouse; details: female, CF-1, mouse, iv, 750 kBq, total radioactivity
CF-1 mice = assay: Biodistribution in healthy CF-1 mice; type: in vivo, mouse; details: CF-1 mice, tail vein injection, after 1 h p.i.
[7] = test system: PC-3 tumor-bearing SCID mice; assay: Biodistribution in PC-3 tumor-bearing SCID mice; details: PC-3 tumor-bearing SCID mice, tail vein injection, 1 h p.i., mean±S.D., n=5, bilateral xenografts
[8] = Biodistribution in PC-3 tumor-bearing SCID mice; details: female, mouse, in vivo, iv, total radioactivity; for tissue uptake at 24 h: 24 h p.i.
PC-3 cells [9] = assay: In vitro internalization assay; type: cell-based, human; details: 37°C, postincubation
in vivo = details: female, SCID, mouse, iv, 750 kBq, total radioactivity; for tissue uptake at 1 h / tissue uptake at 4 h / tissue uptake at 24 h: Biodistribution

Sequence of αvβ3 receptors on PC-3 cells (P06756 31-889 limits assumed): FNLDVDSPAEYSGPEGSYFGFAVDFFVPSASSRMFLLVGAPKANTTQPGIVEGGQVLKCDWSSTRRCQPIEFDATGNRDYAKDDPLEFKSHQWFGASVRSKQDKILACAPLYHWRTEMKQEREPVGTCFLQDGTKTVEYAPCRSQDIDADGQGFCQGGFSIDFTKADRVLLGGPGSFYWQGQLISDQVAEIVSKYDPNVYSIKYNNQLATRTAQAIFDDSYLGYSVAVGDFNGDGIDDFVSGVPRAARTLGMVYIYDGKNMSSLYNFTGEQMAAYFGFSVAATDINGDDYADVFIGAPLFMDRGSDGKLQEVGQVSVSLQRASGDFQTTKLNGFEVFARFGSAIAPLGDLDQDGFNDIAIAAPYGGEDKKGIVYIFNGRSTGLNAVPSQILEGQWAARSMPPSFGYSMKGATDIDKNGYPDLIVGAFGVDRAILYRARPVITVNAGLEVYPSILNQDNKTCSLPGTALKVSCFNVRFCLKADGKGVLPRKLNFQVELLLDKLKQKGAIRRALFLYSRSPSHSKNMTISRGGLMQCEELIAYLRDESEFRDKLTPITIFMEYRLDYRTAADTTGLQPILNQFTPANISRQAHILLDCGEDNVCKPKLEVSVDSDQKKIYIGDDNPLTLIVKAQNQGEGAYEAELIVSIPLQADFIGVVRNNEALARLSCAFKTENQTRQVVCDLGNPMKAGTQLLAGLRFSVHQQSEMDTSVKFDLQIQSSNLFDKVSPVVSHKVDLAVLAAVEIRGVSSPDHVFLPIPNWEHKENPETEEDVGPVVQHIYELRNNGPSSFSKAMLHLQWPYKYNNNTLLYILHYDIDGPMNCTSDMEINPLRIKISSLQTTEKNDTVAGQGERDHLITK
Sequence of αvβ3 receptors on PC-3 cells (P06756 891-1048 partner limits assumed): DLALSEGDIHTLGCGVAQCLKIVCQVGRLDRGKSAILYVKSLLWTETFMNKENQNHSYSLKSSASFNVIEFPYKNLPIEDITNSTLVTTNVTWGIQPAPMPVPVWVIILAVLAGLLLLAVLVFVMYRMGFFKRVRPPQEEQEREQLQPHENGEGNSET
Sequence of αvβ3 receptors on PC-3 cells (P05106 27-788): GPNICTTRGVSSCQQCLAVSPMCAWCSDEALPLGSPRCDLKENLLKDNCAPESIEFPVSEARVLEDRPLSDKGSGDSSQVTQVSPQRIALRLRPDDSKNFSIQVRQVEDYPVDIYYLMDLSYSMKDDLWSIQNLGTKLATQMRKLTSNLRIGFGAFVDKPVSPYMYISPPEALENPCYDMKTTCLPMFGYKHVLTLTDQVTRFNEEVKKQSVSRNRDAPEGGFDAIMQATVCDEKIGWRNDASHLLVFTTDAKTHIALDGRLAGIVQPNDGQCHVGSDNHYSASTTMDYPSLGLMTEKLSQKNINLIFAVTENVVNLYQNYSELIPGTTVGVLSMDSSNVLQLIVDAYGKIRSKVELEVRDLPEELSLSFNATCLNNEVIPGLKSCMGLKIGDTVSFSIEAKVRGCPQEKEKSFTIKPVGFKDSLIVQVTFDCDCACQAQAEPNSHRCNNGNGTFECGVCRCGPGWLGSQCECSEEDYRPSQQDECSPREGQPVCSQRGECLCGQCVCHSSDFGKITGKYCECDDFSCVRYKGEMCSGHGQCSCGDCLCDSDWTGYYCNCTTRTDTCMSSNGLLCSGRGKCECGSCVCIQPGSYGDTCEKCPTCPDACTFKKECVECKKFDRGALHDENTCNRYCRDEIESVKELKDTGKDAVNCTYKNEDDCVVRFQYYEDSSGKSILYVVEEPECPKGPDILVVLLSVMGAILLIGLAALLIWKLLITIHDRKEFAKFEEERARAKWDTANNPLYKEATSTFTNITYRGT

In the case of ^natCu-NO2A-RGD, the “Displacement of 125I-Echistatin (binding affinity for αvβ3 receptors)” value [1] is reported as “minimal displacement; also recorded: extremely poor binding affinity”.
For ^64Cu-NO3A-RGD-BBN(7-14)NH2, the PC-3 tumor retention [2] is listed as 2.04±0.35 %ID/g, the “Retention in the kidneys” value [2] is listed as 1.87±0.41 %ID/g and the “Internalization rate compared to ^64Cu-NO2A-RGD-Glu-6-Ahx-BBN(7-14)NH2” value [3] is listed as “approximately three times higher”.
In the case of NO3A-RGD-BBN(7-14)NH2, the IC50 (GRPr) is given as 92.8 ± 3.53 nM.
With NO2A-RGD the “Reduction of cellular uptake of ^64Cu-NO2A-RGD-Glu-6-Ahx-BBN(7-14)NH2 tracer” value (PC-3 cells [4]) was 65%.
For ^64Cu-NO3A-BBN(7-14)NH2, the PC-3 tumor retention [2] is given as 0.44±0.39 %ID/g.
In the case of ^64Cu-NO3A-RGD, the PC-3 tumor retention [2] is listed as 0.55±0.32 %ID/g.
In the case of `CSCC[C@H](NC(=O)[C@H](CC(C)C)NC(=O)[C@H](Cc1c[nH]cn1)NC(=O)CNC(=O)[C@@H](NC(=O)[C@H](C)NC(=O)[C@H](Cc1c[nH]c2ccccc12)NC(=O)[C@H](CCC(N)=O)NC(=O)CCCCCNC(=O)[C@H](CCC(=O)NCCCC[C@@H]1NC(=O)[C@@H](Cc2ccc(O)cc2)NC(=O)[C@H](CC(=O)O)NC(=O)CNC(=O)[C@H](CCCNC(=N)N)NC1=O)NC(=O)CN1CCN(CC(=O)O)CCN(CC(=O)O)CC1)C(C)C)C(N)=O` [^64Cu-NO2A-RGD-Glu-6-Ahx-BBN(7-14)NH2, metal not drawn], the MicroPET image quality [5] is reported as “high-quality, high-contrast images”, the tissue uptake at 1 h ([6]; pancreas) is reported as 5.9 ± 1.74 %ID/g and the tissue uptake dose at 1 h ([6]; whole blood) is reported as 0.42 %ID. The Urinary excretion (CF-1 mice) was about 85%, the “Biodistribution, Tumor” value [7] was 3.95±1.04 %ID/g and the tissue uptake at 1 h ([8]; ICR SCID, 750 kBq (~20 uCi)) was 1.04 ± 0.08 %ID/g. It also gave a tissue uptake at 1 h ([8]; SCID, 750 kBq, Biodistribution, Bladder, PC-3 tumor-bearing SCID mice, tail vein injection, 1 h p.i., mean±S.D., n=5) of 3.39 ± 3.54 %ID/g, a tissue uptake at 4 h ([8]; SCID, 750 kBq, Biodistribution, Bladder, PC-3 tumor-bearing SCID mice, tail vein injection, 4 h p.i., mean±S.D., n=5) of 0.55 ± 0.33 %ID/g and a tissue uptake at 24 h ([8]; SCID, 750 kBq, Biodistribution, Bladder, PC-3 tumor-bearing SCID mice, tail vein injection, mean±S.D., n=5) of 0.31 ± 0.29 %ID/g. The tissue uptake at 24 h ([8]; SCID, 750 kBq, Biodistribution, Tumor, PC-3 tumor-bearing SCID mice, tail vein injection, mean±S.D., n=5, bilateral xenografts) was 2.42 ± 0.57 %ID/g, the “Time of maximum internalization” value (PC-3 cells [9]) was ~ 90 min and the tissue uptake dose at 1 h (in vivo) was 0.72 ± 0.1 %ID. For the same compound, the tissue uptake dose at 4 h (in vivo) was 0.16 ± 0.05 %ID, the tissue uptake dose at 24 h (in vivo) was 0.18 ± 0.02 %ID and the tissue uptake at 1 h (in vivo; Bone) was 0.52 ± 0.27 %ID/g. The tissue uptake at 4 h (in vivo; Bone) was 0.13 ± 0.08 %ID/g, the tissue uptake at 24 h (in vivo; Bone) was 0.13 ± 0.15 %ID/g and the tissue uptake at 1 h (in vivo; Brain) was 0.05 ± 0.01 %ID/g. It also gave a tissue uptake at 4 h (in vivo; Brain) of 0.04 ± 0.02 %ID/g, a tissue uptake at 24 h (in vivo; Brain) of 0.03 ± 0.02 %ID/g and a tissue uptake at 1 h (in vivo; Heart) of 0.35 ± 0.1 %ID/g. For the same compound, the tissue uptake at 4 h (in vivo; Heart) was 0.22 ± 0.05 %ID/g, the tissue uptake at 24 h (in vivo; Heart) was 0.48 ± 0.17 %ID/g and the tissue uptake at 1 h (in vivo; Large intestine) was 1.34 ± 0.11 %ID/g. The tissue uptake at 4 h (in vivo; Large intestine) was 6.86 ± 0.88 %ID/g, the tissue uptake at 24 h (in vivo; Large intestine) was 0.85 ± 0.18 %ID/g and the tissue uptake at 1 h (in vivo; Lung) was 0.97 ± 0.25 %ID/g. For the same compound, the tissue uptake at 1 h (in vivo; Muscle) was 0.22 ± 0.08 %ID/g, the tissue uptake at 4 h (in vivo; Muscle) was 0.09 ± 0.04 %ID/g and the tissue uptake at 24 h (in vivo; Muscle) was 0.08 ± 0.1 %ID/g. The tissue uptake at 1 h (in vivo; Pancreas) was 21.6 ± 3.3 %ID/g, the tissue uptake at 4 h (in vivo; Pancreas) was 13.2 ± 1.79 %ID/g and the tissue uptake at 24 h (in vivo; Pancreas) was 5.18 ± 0.57 %ID/g. It also gave a tissue uptake at 1 h (in vivo; Small intestine) of 5.21 ± 0.75 %ID/g, a tissue uptake at 4 h (in vivo; Small intestine) of 2.1 ± 0.4 %ID/g and a tissue uptake at 24 h (in vivo; Small intestine) of 0.78 ± 0.14 %ID/g.
